Assay results reported in the nanobody polyreactivity screen of Harvey et al. (2022).

assay: yeast display, Sf9 membrane polyspecificity reagent, FACS + sequencing; frameworks hold sequencing errors
Procedure, shortened: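 Nanobodies came from a synthetic yeast display library in Saccharomyces cerevisiae BJ5465, induced with galactose for 36–48 hours and stained for 1 hour at 4 °C with 10% biotinylated, detergent-solubilized Sf9 membrane reagent. Cells were enriched on streptavidin microbeads and then FACS-sorted, with low and high (top ~1%) gates set on anti-HA fluorescence for expression and streptavidin fluorescence for reagent binding. Each polyreactivity label reflects the gate a clone came from. Genes were amplified by colony PCR, sequenced by MiSeq 2 × 250 and filtered by CDR length.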

Row | Sequence | polyreactivity (PSR sort gate)
1 | QVQLVESGGGLVQAGGSLRLSCAASGFTFDRYTMGWYRQAPGKEWELVAVIRRGGSTYYADSVKGRFTISRDNAKNTVYLQMNSLKPEDTAVYYCNALSALAVEDGYWGQGTQVTVSS | low polyreactivity
2 | QVQLVESGGGLVQAGGSLRLSCAASGFTFDSNAMGWYRQAPGKERELGAAISKRGGSTYYADSVKGRFTISRDNAKNTVYLQMNSLKPEDTAVYYCAADNYNSGGTRHMYYWGQGTQVTVSS | high polyreactivity
3 | QVQLVESGGGLVQAGGSLRLSCAASGFTFDVYAMGWYRQAPGKERELVATITWSGGSTTYADSVKGRFTISRDNAKNTVYLQMNSLKPEDTAVYYCAADRSVQVTFDYWGQGTQVTVSS | low polyreactivity
4 | QVQLVESGGGLVQAGGSLRLSCAASGFTFDWYAMGWSRQAPGKERELVAAISSSGTSRYYADSVKGRFTISRDNAKNTVYLQMNSLKPEDTAVYYCAARWYYVTPLRRYGYWGQGTQVTVSS | high polyreactivity
5 | QVQLVESGGGLVQAGGSLRLSCAASGFTFDYYALGWYRQAPGKERELVAAISRGGSTYYADSVKGRFTISRDNGKNTFYLQMNSLKPEDTAVYYCAVSAGKRRLDYWGQGTQVTVSS | high polyreactivity
6 | QVQLVESGGGLVQAGGSLRLSCAASGFTFDYYAMGWYRQAPGKERELVAAISVSDSSTYYADSVKGRFTISRDNAKNTGDLQMNSLKPEDTAVYYCAAEYYVGFTYRYEYWGQGTQVTVSS | low polyreactivity
7 | QVQLVESGGGLVQAGGSLRLSCAASGFTFDYYAMGWYRQAPGKERELVASITFIGGNTNYADSVKGRFTISRDNAKNTVYLQMNSLKPEDTAVYYCAADFPWDYRYWFEYWGQGTQVTVSS | low polyreactivity
8 | QVQLVESGGGLVQAGGSLRLSCAASGFTFEENAMGWYRQAPGKERELVAAINWSGGNTYYADSVKGRFTISRDNAKNTVYLQMNSLKPEDTAVYYCAADSPRYYYWVGPYYGYDYWGQGTQVTVSS | high polyreactivity
9 | QVQLVESGGGLVQAGGSLRLSCAASGFTFEGNAMGWYRQAPGKERELVAAISSNGGRTYYADSVKGRFTISRDNAKNTVYLQMNSLKPEDTAVYYCNALRAYSGPDYDYYHGRRYDYWGQGTQVTVSS | low polyreactivity
10 | QVQLVESGGGLVQAGGSLRLSCAASGFTFEGYAMGWYRQAPGKERELVASISSGGGTNYADSVKGRFTISRDNAKNTVYLQMNSLKPEDTAVYYCAARAYPYFWTGQKLSRFGYWGQGTQVTVSS | high polyreactivity
11 | QVQLVESGGGLVQAGGSLRLSCAASGFTFEIYTMGWYRQAPGKERELVAAISTGGNTKYADSVKGRFTISRDNAKNTVYLQMNSLKPEDTAVYYCAKGRKPGYYYWGQGTQVTVSS | high polyreactivity
12 | QVQLVESGGGLVQAGGSLRLSCAASGFTFELYDMGWYRQAPGKERELVARITRSGGSTNYADSVKGRFTISRDNAKNTVYLQMNSLKPEDTAVYYCAAKSPLFGLTSYPGPDDSWGQGTQVTVSS | low polyreactivity
13 | QVQLVESGGGLVQAGGSLRLSCAASGFTFERYSMGWYRQAAGKEMELVASISRRSGRTSYADSVKGRFTISRDNAKNTVYLQMKSLIPEDTAVYYCAVDDAYPDGYDYWGQGTQVTVSS | high polyreactivity
14 | QVQLVESGGGLVQAGGSLRLSCAASGFTFETNAMGWYRQAHGKERELVATITGGGSTNYADSVKGRFTISRDNAKNTVYLQMNSLKPEDTAVYYCNAVHEASYAGVDYWGQGTQVTVSS | low polyreactivity
15 | QVQLVESGGGLVQAGGSLRLSCAASGFTFFENAMGWYRQAPGKERELVAAIRKSGDRTYYADSVKGRFTISRDNAKNTVYLQMNSLKPEDTAVYYCAAPLSLRSSFGSWGQGTQVTVSS | high polyreactivity
16 | QVQLVESGGGLVQAGGSLRLSCAASGFTFFGYAMGWYRQEPGKERELVAAISTIDGDTYYADSVKGRFTISRDNAKNSFYFLMNSLKPEDTAVYYCAADDYIDGDDYWGQGTQVTVSS | low polyreactivity
17 | QVQLVESGGGLVQAGGSLRLSCAASGFTFFHYAMGWYIQAPGKERELVAAITRSGSSTYYADSVKGRFTISRDNAKNTVYLQMNSLKPEDTAVYYCAADYISRGGYTIEDYWGQGTQVTVSS | low polyreactivity
18 | QVQLVESGGGLVQAGGSLRLSCAASGFTFFIYAMGWYRQAPGKERELVAAISLSGTSTYYADSVKGRFTISRDNAKNSVYLQMNSLKPEDTAVYYCAKDGAYWTYYSGYDYWGQVTQVTVSS | low polyreactivity
19 | QVQLVESGGGLVQAGGSLRLSCAASGFTFFIYAMGWYRQAPGKERELVAAISWRGDRTYYADSVKGRFTISRDNAKNTVYLQMNSMKPEDTAVYYCAKSVWRRVYYARYDDRHNYWGQGTQVTVSS | high polyreactivity
20 | QVQLVESGGGLVQAGGSLRLSCAASGFTFFKYAMGWYRQAPGKERELVAAITRNGGRTYYADSVKGRFTISRDYAKNTVYLQMNSLKPEDTAVYYCNAASVNGGRDFDYWGQGTQVTVSS | high polyreactivity

Row | Sequence | polyreactivity (PSR sort gate)
21 | QVQLVESGGGLVQAGGSLRLSCAASGFTFFSNAMGWYRQAPGKERELVAAITSSGGSTYADSVKGRFTISRDNAKNTVYLQMNSLKPEDTAVYYCAAELYDYGDLYYSEYDYWGQGTQVTVSS | low polyreactivity
22 | QVQLVESGGGLVQAGGSLRLSCAASGFTFFTNAMGWYRKAPGKEREFVAAISGSGSRTYYADSVKGRFTISRDNAKNTVYLQMNSLIPEDTAVYYCAARVRGVYPFDYWGQGTQVTVSS | high polyreactivity
23 | QVQLVESGGGLVQAGGSLRLSCAASGFTFFTYAMGWYRQAPGKERELVAAITSGGSTNYADSVKGRFTISRDNAKNTVYLQMNSLKPEDTAVYYCATRAYSDATTFYGYQRSDSWGQGTQVTVSS | low polyreactivity
24 | QVQLVESGGGLVQAGGSLRLSCAASGFTFFVSAMGWYRQAPRKERELVAVITSGGTTNYADSVKGRFTISRDIAKKTVYLQMNSLKPEDTAVYYCNGRGEKRGYYYWGQGTQVSVSS | high polyreactivity
25 | QVQLVESGGGLVQAGGSLRLSCAASGFTFFYNAMGWYRQAPGKEREFVAAISGRGGTTYYADSVKGRFTISRDNAKNTVYLQMNSLKPEDTAVYYCNAGSSPIRQYYGQVWKKGGYWGQGTQVTVSS | high polyreactivity
26 | QVQLVESGGGLVQAGGSLRLSCAASGFTFGANVMGWYRQAPGKERELVAGITWSGDSTYYADSVKGRFTISRDNAKNTVYLQMNSLKPDDTAVYYCAADVYDGEYILDYDYWGQGTQVTVSS | low polyreactivity
27 | QVQLVESGGGLVQAGGSLRLSCAASGFTFGAYAMGWYRHAPGKERELVAAINRRGGSTYYADSVKGRFTISRENAKNTVYLQMKSLKPEDTAVYYCNAPFGYDYWGQGTQVTVSS | high polyreactivity
28 | QVQLVESGGGLVQAGGSLRLSCAASGFTFGAYAMGWYRQAPGKERELVAAITGSGGNTFYADSVKGRFTISRDNAKNSVYLEMNCLKTEDTAVYYCAKTWYPWSRYGYYRRYDSWGQGTQVTVSS | low polyreactivity
29 | QVQLVESGGGLVQAGGSLRLSCAASGFTFGDYAMGRYRPEPGKERELVAAISSGGNTNYADSVKGRFTISRDNAKHTVYLQMNRLKPEDTAVNNCAPRRQSKGYKLNYWGHGTQVTVSS | high polyreactivity
30 | QVQLVESGGGLVQAGGSLRLSCAASGFTFGFYAMGRYRQAPGKERELVARISYSGGSTYYADSVKGRFTISRDKAKNTVYLQMNSLKPEDTAVYYCNRGYRRLQEDYWGQGTQVTVSS | high polyreactivity
31 | QVQLVESGGGLVQAGGSLRLSCAASGFTFGFYAMGWYRQAPGKERELVAAISGSGGRTYYADSVKGRFTISRDNAKNTVYLQMNSLKPEDTAVYYCAARWQRKSNGDEDYWGQGTQVTVSS | high polyreactivity
32 | QVQLVESGGGLVQAGGSLRLSCAASGFTFGFYAMGWYRQAPGKERELVAAISKRGGSTYYADSVKGRFTISRDNAKNTVYLQMNSLKPEDTAVYYCAAVYTQSRGWEYDYWGQGTQVTVSS | high polyreactivity
33 | QVQLVESGGGLVQAGGSLRLSCAASGFTFGGNVMGWYRQAPGKERELVAAISSSGGSTYYADSVKGRFTISRDNAKNTVYLQMNSLKPEDTAVYYCAATTYGWWGYQYDYWGQGTQVTVSS | high polyreactivity
34 | QVQLVESGGGLVQAGGSLRLSCAASGFTFGGYAMGCYRQAPGKESELVAAISGRGGRTYYADSVKGRFTISRDNAKNTVYLQMNSLKPEDTAVYYCAAPTNHWTRLSGDYWGQGTQVTVSS | high polyreactivity
35 | QVQLVESGGGLVQAGGSLRLSCAASGFTFGGYAMGWYRQAPGKERELVARIRRSGGSTYYADSVKGRFTISRDNAKNTVYLQMNSLKPEDTAVYYCAAGYSRGQYRYNYWGQGTQVTVSS | high polyreactivity
36 | QVQLVESGGGLVQAGGSLRLSCAASGFTFGHYAMGWSRQAPGKERELVAAISKSGTRTYYADSVKGRFTISRDNAKNTVYLQMNSLKPEDTAVYYCATTAYNGYDHWGQGTQVTVSS | high polyreactivity
37 | QVQLVESGGGLVQAGGSLRLSCAASGFTFGLYAMGWYRQAPGKERELVAAITSGGRTYYADSVKGRFTISRDNAKNTVYFQMNSLNPEDSAVYYCNADFFNAYLWYPGYESGFDYWGQCTQVTVSS | low polyreactivity
38 | QVQLVESGGGLVQAGGSLRLSCAASGFTFGNNAMGWYRQAPGKERELVAGISRTGGRTYYADSVKGRYTISRDNAKNTVYFQMNSLKPEDTGVYYCNADSTLYTGYDYWGQGTQVTVSS | high polyreactivity
39 | QVQLVESGGGLVQAGGSLRLSCAASGFTFGNNGMGWYRQAPGKERELVATISWSGGSTYADSVKGRFTISRDNAKNTVDLQMNSLKPEDTAVYYCAARYFVYYLEVDYWGQGTQVTVSS | low polyreactivity
40 | QVQLVESGGGLVQAGGSLRLSCAASGFTFGNYAMGWYRQAQGKERELVDAISGSGGSTYYADSVKGRFTISRYNAKNTVYLQMNSLKPEDTAVYYCAARYWVTYWPDYYYWGQGTQVTVPS | high polyreactivity
